In the DeepSol protein solubility set:

Test: soluble on expression in E. coli; label from the status in PepcDB or PDB records

Sequence	soluble on expression in E. coli
MGSDKIHHHHHHMELRHLRYFAATAEELNFTRAANRLHISQPAVSRLIKELECELGAQLFTRERFGLRLTAAGEKFLFYARRVLQDCEEGIRAVRENGLNHQKLTIGFISTAMESFLSDALVRLSQERPDIDVTVNEMSPGDQIAALRYRQIDLGFIGNPHDGAGDEFELYVLREVPLVAVLPVRHRLAGRSEICIGELEGDTFIGYLEDKFPGRNRVISTACARAGFRPKFELKAGSLIEVLGMIGTGKGVCLMPSDVAGLPHPNVAFIPLRDPLDPVRLAAAWLPGNTNPALHQLIAILAADCSSDTGRTSR	not soluble
MAPSRRERERERRREQIIRAAEKAFFARGYDRVTMDEIAEEAEVNKALLYYYFKNKESLFFAVNLYGVRILHSMYRRCLELDTDGYGKVRAMVEALYSFSKEHPDYFRIYCYSGTERFELSESEDAREIVDLRTGMWRLMVEAIMEGMNDGSIRSDLDPVELSIYIHTLAINALNLDFTSRMVLEARNISRDRFWEDLEVFLESALRP	not soluble
MPPGKCLFSGVFCNMAEKQTAKRNRREEILQSLALMLESSDGSQRITTAKLAASVGVSEAALYRHFPSKTRMFDSLIEFIEDSLITRINLILKDEKDTTARLRLIVLLLLGFGERNPGLTRILTGHALMFEQDRLQGRINQLFERIEAQLRQVLREKRMREGEGYTTDETLLASQILAFCEGMLSRFVRSEFKYRPTDDFDARWPLIAAQLQ	not soluble
AHHHHHHGSVDWELMKKIIESPGVSGYEHLGIRDLVVDILKDVADEVKIDKLGNVIAHFKGSAPKVMVAAHMDKIGLMVNHIDKDGYLRVVPIGGVLPETLIAQKIRFFTEKGERYGVVGVLPPHLRREAKDQGGKIDWDSIIVDVGASSREEAEEMGFRIGTIGEFAPNFTRLSEHRFATPYLDDRICLYAMIEAARQLGEHEADIYIVASVQEEIGLRGARVASFAIDPEVGIAMDVTFAKQPNDKGKIVPELGKGPVMDVGPNINPKLRQFADEVAKKYEIPLQVEPSPRPTGTDANVMQINREGVATAVLSIPIRYMHSQVELADARDVDNTIKLAKALLEELKPMDFTP	soluble
MFLTRSEYDRGVNTFSPEGRLFQVEYAIEAVKLGSTSIGIKTSEGVLLAAEKRSTSKLMVNDAIEKISKVDQHIGVTFAGLIADSRTLVERAQIEAQNFWFTYNRKIRVEDVTQSVANLALQFGDDDVKASMSRPFGVAMLFAGVDQEGAKLFHLDPSGTFIDCKAKSIGAASDGAEQNLKEQYHDALTIKEGLKMALAILKQVMEEKLNSANVEVVVIKPTVDAKGRPIGEFTRVSNEELDQVITSL	not soluble
MNRKPRTRSTIVPGRKMITEIVALREAGLDDTRPSYLEEPTVIVDESMMNDSANLEEREWRKQGLSEKQMFAILEKRKQTQLNNARKRLEKEMYGAKTFKELIACREYSECESDSENTVNQNVRSASVFAIPALPKHISEKSMMGSPIANSRGSGKAGLSCSTPKSSSDTSMRSLRSLDISHVVNTDRLDAERVTVHTKSVVIPTILEERESTLQKTLTIEKNHSSQLQKTFTVAEDAPEELQKTVTIEKNQSSEMQRTFTVAKDASKEQSQLQRTVTIEKNQSSQLQGNFTVAKDAPEELQKTVTIEKNQSSEMQGTVTVAKDAEHSSLQKTFTKPTEKDESSLQRTFNVANRDENNDSTLQKTFIIEERDAYEQGTTSVGVKPPVLAQNTMEGGEKRRTSKVTSDERERRNASISNPLHNSMLEKEEIQSPGANFFKHPRKKIRPVVQTPPRIKATSRLSTESNKERTIEMESVAEERTMEADSIGSSYISPTFNASRVSPVPEVPEKVEPMHVSKAATPKSIRHTDNSIRNIGPTNNVECARAALLSTPTRMDIVDSVNRVTPARRYEQPTFASLVKRMNMKDANRLLEETSRKNTPAKTTATTSSAAVRMVLEDDEEDQATEVIEKRSENGGVIVDGEDEAADSSNRSLNIELNALTVNEEPAHDISAIDFPEDDTNEMRSSSDEEEMEARPDPRKKSSRRLGLLSDSIALGLASSSRRRPNDTFVDETWYPEPNSKGNRRPRTHRGMKLKEHQLMKPEDAPDGVRRSTRVRVKPVRSWLGEQPVYVNSPISGCKRLTGVTAVVIKDPRLCYYRTADVRTATERELKDKANKRALAQEKKQQRQNARSGRRHDSDDDEEDDM	not soluble
LTKRVQEAQAMTEGERRKLSSVLAYMTDGVIATDRRGKVILINTPAEKMLRVKHESANGRSIIDVLDIGDTYQFEDLMEVDGSLTMDRSTLDKPYVLRANFSVIQRETGFNNGVIAVLHDIT	not soluble
MGSDKIHHHHHHMIGYGKTVRDIRTSKGIHQKDLYDNIISKSFAIEFEKGKHDITLSLFEKILKRMNMDLDEFFYIHRELSKSAEKNYLCMNQERGNIYDLESLELLYSELSKHDGELVEVWKAFVRSRIKMVEHLLKYHEFTVDVITAKDKCTIQKYLFSIDTWTLEELKICANSIYFFEEDLQIQFLNQVIKAIQPYKNYDRARRVLCTLLINTIEVFISRSQLSSASKLLILLDSLCIYNESAFYRNISNFLKGLLKMQSNQIKEGYAQAKKAIQLMNDLHFEEIAYLYEILLDQFIQLEGIDILNY	not soluble
STLYEKLGGTTAVDLAVDKFYERVLQDDRIKHFFADVDMAKQRAHQKAFLTYAFGGTDKYDGRYMREAHKELVENHGLNGEHFDAVAEDLLATLKEMGVPEDLIAEVAAVAGAPAHKRDVLNQ	soluble
MSLDMKTTHTSLPFAGHTLHFVEFDPASFREQDLLWLPHYAQLQHAGRKRKTEHLAGRIAAIYALREYGYKCVPAIGELRQPVWPAGVYGSISHCGTTALAVVSRQPIGIDIEEIFSAQTARELTDNIITPAEHKRLADCGLAFPLALTLAFSAKESAFKASEIQTDADFLDYQIISRNKQQVIIHRENEMFAVHWQIKEKIVITLCQHDEGHHHHHH	soluble
MGSDKIHHHHHHMPTKRGQIRHDPSSKKATTMDLNRRPVASLWIGESLQYLNQLCLKSHLRHGHPVTLYCTDKVTNAPEGVVVKPATDIMDIPMNIVEQTSASFLSNVFRYKMIQQTGAIWIDCDAFCHAPFPDEWEHIYAGHGMRGALNCGVVGIPQQGELMDQLLDYYDNLPDYPPWWNPRQRKRMDRQDSNLPLAVRIYKTERTAFGPQAFTHFARETGDIDRAMTSDVLYPVPFQLNDIFYDPHGRVEGWFSENTRSVHLYTNGTKPWWRKNPPLENSYAWRMCQEVGITPEDALE	not soluble
SASEVEEQIPVREEFFLCGGVETKIIKCGPWTNLFEKQDVSKPKQLIFIIPGNPGYSAFYVPFAKALYTLMKSRFPVWIISHAGFSVTPKDKKVLAAPQEESNAQKIEDVYGLNGQIEHKIAFLRAHVPKDVKLILIGHSVGTYMTLHVMKRVPELPVAHAFLLFPTIERMSESPNGKFATPFLCQFRYLLYATSYLLFKPCPEVIKSFIIQKLMGQMNIKLELPLTDILQPFCLA	soluble
MGSDKIHHHHHHMGIRVSTISRCIGHLEDEIGVALFLRRPNGVTLTFAGEQFLVRARRAMTEVRHAICEAGIAGTGRNGFVRLGLLSSLAAPFPAMLIKIYCAAYPGVRILYSEGGAADHRAALQHHRLDLAFLPHPEKAEGCDALGLWEERLFAAMAQDDPLTRHDVVTWDDLRERHFIFSEVPPGPELLDYLTERLVGFGFLLKADLLTVYRDTVMRVIANGSDVTVIGEARVSHPIQGVACRPITGESLFFHAVWLPTNDNPAFRRFLSLAKVLSKQCSVCELKEGLAGPSGEDHSVMDETSASLERKSRLLKIVSERCATCLLKKAIAD	not soluble
MRLDLSAKFRQVLGLAKDHASIGRAIVQNYNEKAFFDIEVAVVRATSHDDCPVDDKTMHEILFLVSNTPGSIPFLAEQISRRLAKTRDCLVAGKTLLLFHRLLRGSSRSIEQQLHIAHTSGHLQIGCSWFMMSLDSRSFVFLQNYVAYLQERVGWIINQAGKLEPVMSGGTKFSRYKEKSMDLVFHILPKCQEFIAQVLKCSPVDAWPIDNLVQAATGNILKESFQVYMTYSDGMTALVSMLFDLSRPARDLACGMLRKASQQIQDLRILYDKCRGFAGMKSLDYPSVQAISMDHIVALEECSSYGGKRGFSLSTNLRDAITCNELKQEQHSASFSSTSPFSLPVETKISMVWVVFDNEDGEESDKQTEKAYER	soluble
MGSDKIHHHHHHMRTALLEVGLEELPASEFHSILKQLEEKSAELLKAYRVSSGSVEVFVGSRRFGVILKNLPERQEDFTEEKKGPPLNVAYDENGKPTRALEGFLRNNNASLENVVHREGYVYLSRVVEGKPVEEVLPDLFRDLVLGLNFRKPMRWGSGEHEYIRPVHWIVAMVDGRVLDLEIFGLRSSRISYGKRYHAGSIEIPDSERYYESLKKGFVISSHLERKKFVLEQIDEFEKRSSMKIERDEELIEEIVAITEYPRIVVGQFDRKYLELPEEIIVTAVKHHQRSFIAHKGTLTNTFVAFQDGPQPPENVVKGYERVINARLEDARYYFQKDLETPLEKMNEKLKEIVFQEKLGTLYDKVERIKKISQRLCEDLKLPGSFTQKVLEAASICKADIASKVVYEFPELQGVMGRIYALREGINEEIATAIEDHYSEEPQTVIGSILGIADRIDTIVGNFAIGNVPTSSKDPYGLKSKADTIFRIIRKNEWDISLEELLTFASSLVGYRLSEELETFFAGRFYQFLINELGISFDVARAVNHLWKKPLRGILSAEALQEISEKPEFQDLFVGFERVHNITKNHDSTKFDGALFEKEEEKKLMNKFYEVKEKVLKALERLNYREALQYLIELKPYIDEYFDNVFVMVKRDDLRVNRLSFLKNIDELFMMVGDMTYLVKRSQV	not soluble
DLIVTAGGKNVSPGPMEDIIRAHPLVSQAMVVGDGKPFVGLLVTLDPDMLKRWKLNHNIAESRTVSEIATDPALRAEIQDAVNNANATVSHSEAIKRFYILDRDLTEEADELTPTLKVKRNVVVRRYADAIDHIYNR	not soluble
MPYLIIEHLEKISEWLLLEYRHTAQWWGDKLIFTNVKEPEERKILAEIGSVVAESVTKLPFDKSKLIILDPFAEEELKPEDIEEDSLIVVGGILGDFEFTGKTKEFITSKIEGAKARHIGSVQFSIDGASIIAKLISEGKRLEEIEYVESPTIKLDEFSEITLHYAVPKVNGKLLLTPGLIELQKKELGYMEEDVEDEELEKLFGGSLEHHHHHH	soluble
MGSDKIHHHHHHMSLLVRAAALTNYCEVARAGGLDPLRMMFDAGISPSVLREPDLMIQVDRFGRLLQTSATLSGNESFGLSMAESRLLSNLGPVGMLIRDQATLRDALGMLMRYQSILNGAKSLAVDECGGRVIIREVLIAGSAHQPTRQRVELALGVMVRLIRQLIKPDWQPQRVCFEHPAPRDLSTHQRFFGPNVAFNCDFNGIVCAKSDLDARNPWADPAMARYAQRLIDESAAARQTTMLEDVRRTILLLLPGGRCSVEQVAENLGVVCRTVQRRLAEQGQSFSSVVNDIRVELAMRHVVESDRPFTEVATLLGFSAPSGFSRWYQTQFGCSPKESRAASAAVGERVTETPSPARSSPTVRPLSRG	not soluble
MAHHHHHHMGTLEAQTQGPGSMKQAYDNNNIFAKLIRNEIPSVRVYEDDDVIAFMDIMPQAPGHTLVIPKKGSRNLLDADTETLFPVIKAVQKIAKAVKKAFQADGITVMQFNEAASQQTVYHLHFHIIPRMEGIELTPHNNIITPTEILEENAKKIRAAL	soluble
